Test results published in a protein production outcome set (Wang et al. 2014).

Assay: label from the status in PepcDB records

Sequence | protein production
MSLHVTADAPGAAQGGYSVVTFRVPTESETAATTAMTVTLPNVRSARTEPMPGWTARVDRNDKSEAVSVTWTADPGNPGVQPGQFQRFVVSIGPLPSAETVSFPAEQTYSDGRVVAWNQPPAADGSEPEHPAPTLTLATAPGDTEGHHHHHH | not failed
MSLIASIGELLIDLISVEEGDLKDVRLFEKHPGGAPANVAVGVSRLGVKSSLISKVGNDPFGEYLIEELSKENVDTRGIVKDEKKHTGIVFVQLKGASPSFLLYDDVAYFNMTLNDINWDIVEEAKIVNFGSVILARNPSRETVMKVIKKIKGSSLIAFDVNLRLDLWRGQEEEMIKVLEESIKLADIVKASEEEVLYLENQGVEVKGSMLTAITLGPKGFRLIKNETVVDVPSYNVNPLDTTGAGDAFMAALLVGILKLKGLDLLKLGKFANLVAALSTQKRGAWSTPRKDELLKYKEAREVLAEGHHHHHH | not failed
MSLINEATLAESIRRLRQGERATLAQAMTLVESRHPRHQALSTQLLDAIMPYCGNTLRLGVTGTPGAGKSTFLEAFGMLLIREGLKVAVIAVDPSSPVTGGSILGDKTRMNDLARAEAAFIRPVPSSGHLGGASQRARELMLLCEAAGYDVVIVETVGVGQSETEVARMVDCFISLQIAGGGDDLQGIKKGLMEVADLIVINKDDGDNHTNVAIARHMYESALHILRRKYDEWQPRVLTCSALEKRGIDEIWHAIIDFKTALTASGRLQQVRQQQSVEWLRKQTEEEVLNHLFANEDFDRYYRQTLLAVKNNTLSPRTGLRQLSEFIQTQYFDEGHHHHHH | not failed
MSLIYTITLNPAIDRLLFIRGELEKRKTNRVIKTEFDCGGKGLHVSGVLSKFGIKNEALGIAGSDNLDKLYAILKEKHINHDFLVEAGTSTRECFVVLSDDTNGSTMIPEAGFTVSQTNKDNLLKQIAKKVKKEDMVVIAGSPPPHYTLSDFKELLRTVKATGAFLGCDNSGEYLNLAVEMGVDFIKPNEDEVIAILDEKTNSLEENIRTLAEKIPYLVVSLGAKGSICAHNGKLYQVIPPKVQERNDTGAGDVFVGAFIAGLAMNMPITETLKVATGCSASKVMQQDSSSFDLEAAGKLKNQVSIIQLEEREGHHHHHH | not failed
MSLKDFAGRTAFVTGGANGVGIGLVRQLLNQGCKVAIADIRQDSIDKALATLEAEGSGPEVMGVQLDVASREGFKMAADEVEARFGPVSILCNNAGVNLFQPIEESSYDDWDWLLGVNLHGVVNGVTTFVPRMVERVKAGEQKGGHVVNTASMAAFLAAGSPGIYNTTKFAVRGLSESLHYSLLKYEIGVSVLCPGLVKSYIYASDDIRPDALKGEVKPVDKTAVERLAGVHEFGMEPDVIGARVIEAMKANRLHIFSHPDHKEELREVFDEIIAEYQDYPKDPGYDQRVAFEKFRADSFAEARRQSRAADEGHHHHHH | not failed
MSLKIAAFGEVMLRFTPPEYLMLEQTEQLRMNFVGTGVNLLANLAHFQLETALITKLPANRLGEAGKAALRKLGISDQWVGEKGDHIGSFFAEMGYGIRPTQVTYQNRHQSAFGISEAKDYDFEAFLAEVDMVHICGISLSLTEKTRDAALILAQKAHAYQKKVCFDFNYRPSLNTANSALFMRQQYERILPYCDIVFGSRRDLVELLGFIPREDLEGEAQETELIQRFMSQYNLEWFAGTTRSHSQNQNYLSGYLYTQNEYQQSEKRPLLNLDRIGAGDAYAAGILYGYSQNWSLEKAVTFATVNGVLAHTIQGDIPLTTVKQVNHVLEHPNIDLIREGHHHHHH | not failed
MSLKIAKVEALSVAMGDGTGWMPTSAFVRITAEDGTVGWGEASPMLGGIASLGVVARDIAPFLEGQEVLDHAVLLDRMMHRLVKLGPEGIATAALAACDIALWDLKGKLLGQPIYKLLGGAWRTRLPCYSSIGGNAARSVDEVVREVARRVEAEQPAAVKIRWDGDRTRCDVDIPGDIAKARAVRELLGPDAVIGFDANNGYSVGGAIRVGRALEDLGYSWFEEPVQHYHVGAMGEVAQRLDITVSAGEQTYTLQALKDLILSGVRMVQPDIVKMGGITGMMQCAALAHAHGVEFVPHQTQPGVGHFANIHVLSTLMHMTKPVELADRWDRGRPVFRNPAEPVDGHFALGDAPGLGIVVDEDELASRATEITVGRDQRPPAGGQYEGHHHHHH | not failed
MSLKIKVYLYTRVSTSIQIEGYSLEAQKSRMKAFAIYNDYEIVGEYEDAGKSGKSIEGRIQFNRMMEDIKSGKDGVSFVLVFKLSRFARNAADVLSTLQIMQDYGVNLICVEDGIDSSKDAGKLMISVLSAVAEIERENIRIQTMEGCIQKAREGKWNGEGHHHHHH | not failed
MSLKITEVKAHALSTPIPERMRVESGAGLKLNRQMILVEVRTDEGVTGVGSPSGPYDLAVLKRAIEDVIGPQLIGEDPANINYLWHKVFHGEVSRNLGHRSVGIAAMSGVDIALWDLKGRAMNQPIYQLLGGKFHTRGVRAYASSIYWDLTPDQAADELAGWVEQGFTAAKLKVGRAPRKDAANLRAMRQRVGADVEILVDANQSLGRHDALAMLRILDEAGCYWFEEPLSIDDIEGHRILRAQGTPVRIATGENLYTRNAFNDYIRNDAIDVLQADASRAGGITEALAISASAASAHLAWNPHTFNDIITVAANLHLVAASPHPAMFEWDITHNDLMTRLASYDLKLENGLVQPPQGPGLGFEIDWDFVAAHAWKGEPAIGAGHGMKKEGHHHHHH | not failed
MSLKITSIEVFDCELKKRDQTMSSYNPVLIRVNTDSGLSGIGEVGLAYGAGAKAGVGIIRDLAPLIVGEDPLNIEKIWEFFFRKTFWGMGGGNVFYAGMSAIDIALWDIKGKYLGVPVYQLLGGKTNEKLRTYASQLQFGWGDKRHILVTPEEYAEAARAALDDGYDAIKVDPLEIDRNGDDCVFQNRNRNYSGLLLADQLKMGEARIAAMREAMGDDADIIVEIHSLLGTNSAIQFAKAIEKYRIFLYEEPIHPLNSDNMQKVSRSTTIPIATGERSYTRWGYRELLEKQSIAVAQPDLCLCGGITEGKKICDYANIYDTTVQVHVCGGPVSTVAALHMETAIPNFIIHEHHTNAMKASIRELCTHDYQPENGYYVAPEQPGLGQELNDEVVKEYLAYVIKEGHHHHHH | not failed
MSLKIYGVYRSRASRPLWLLAELDLPFEHVPVIQANRVAHPHGPEAPLNTASAAYLAVNPLGQIPCLEEEGLILTESLAITLHIARTQGGQLGPRSEPEDALMVSWSLFAATAVEPPALEIQLIQRSGGGTSPEGQAAIAIAAERLRRPLARLERHFAAEDYLVGGRFTVADLNLAETLRYGQAHPALLEPFPAVAAWLDRCQSRPAFRLMMERRAAEGHHHHHH | not failed
MSLKYLGVYVMEVQKNSSFKNKLQIGDTVLGANGHRFHSTEEMMTYLRKQKINSKVTISVLRGKEKLEHHHHHH | failed
MSLLESIAVVINLLGVWLTARRIRWCWPVGIVAVALYAWLFYQWKLYSDMLLQGVYVLTQLYGWWHWQPGTAADTRIRPLPMPSAERWLSLGIGAAFAATLGAYMHYRTDAVLPWLDAALASFSLVASVWAARKRIANWVLWIVLDCVYVGVFISKGLYPTAVLYAGFVALAVYGWHSWKTQQNQNLAVAR | failed
MSLMDYFAIHVVPKLYRGKGAFHPAETGKLTETVSCVREYDVNIFFIRKGNTLIAIDSGYKNHHALLPGCKKIEIDPKAVQALFLTHADPDHAGGLDIRCENCFINAEIYLGEIEENYLTNTIYRKKIGPFGLKNSVKIKDNYHLLKDGQSVSVGDLTIQPFLVPGHTLGHLMYLIDNELLFTGDSIALNQEGGWCFFDLFNYNSEMNIKSLKTLKEKLDLNRIKYVFTSHNGFTDKAKEAFAHVDVIPKWNEKGFIFDKTAPYDCFAD | failed
MSLNARARALRHSRSGTIGLIVPDVNNAVFADMFSGVQMAASGHSTDVLLGQIDAPPRGTQQLSRLVSEGRVDGVLLQRREDFDDDMLAAVLEGVPAVTINSRVPGRVGSVILDDQKGGGIATEHLITLGHSRIAFISGTAIHDTAQRRKEGYLETLASAGLRSEAAWVVDAGWEADAGSAALNTLYRGANLGKPDGPTAVVVASVNAAVGALSTALRLGLRVPEDLSIVGINTTWVSDTVYPALTTVRLPLQRLGEVAADVLMEHLGGRALTDTVVTQPTPELLVRETTAPPTREGHHHHHH | not failed
MSLNERILLVDDDYSLLNTLKRNLSFDFEVTTCESGPEALACIKKSDPFSVIMVDMRMPGMEGTEVIQKARLISPNSVYLMLTGNQDLTTAMEAVNEGQVFRFLNKPCQMSDIKAAINAGIKQYDLVTEGHHHHHH | not failed
MSLNETYMMITFQSGMDYWKRCLKGFEDAAQALNVTVEYRGAAQYDIQEQITVLEQAIAKNPAGIAISAIDPVELTDTINKAVDAGIPIVLFDSGAPDSHAHSFLGTNNYNAGMNAAYKMAELLDGEGEVAVITLPNQLNHQERTTGFKETLEAEFPAIEVIAVEDGRGDSLHSRRVAHQLLEDYPNLAGIFATEANGGVGVGDAVRLESRAGEIQIISFDTDKGTLDLVDEGIISATLAQGTWNMGYWSLTYLFHLHHGLTEPQILQTREEAPLPLYVDTGITIVTDENVDYYYADEGHHHHHH | not failed
MSLNGKTMFISGASRGIGLAIAKRAAQDGANIALIAKTAEPHPKLPGTVYTAAKELEEAGGQALPIVGDVRDPESVEAAVAKTVEQFGGIDICVNNASAINLGPITEVPMKRFDLMNGIQVRGTYAVSQACIPHLKGRENPHILTLSPPVLLGKEWLKPTAYMMAKFGMTLCALGIAEEMREAGIASNTLWPRTLVATAAVQNLLGGDEAMGRARKPEVYSDAAYVILNKPAREFTGNMLLCEDVLVESGVTDLSVYNCVPGSQLGVDFWVDGVNPPGYTGP | failed
MSLNIEEWEEYRYVEAGIKESITLIEDPGLKKMVEHVCHSGGKRIRPIILLLVSEICSGSYSRSLNAALAVEMMHSASLIHDDLLDQGLVRRNLPSAPEKFGPSGALLCGDYLIAKSIAFISPYGEKVIQDFGKAGMDMAEGEVLDLKLEDESFGENDYFKCIYKKTASLFAISASIGAYTGGAEEELAERFSHFGNALGTAYQIVDDILEFLEVVEGKESKFTSETLPHIYMKSTSKEEALKKSIDCVKLHVAAAKETLETFRECPARDKLFQITDYITVDMLENLEGHHHHHH | not failed
MSLNNQDISIGKLSRLKIWITDNHLSDDQWSNTKKFIIIKITTEDGIEGWGEAFSINFREKGIAIIIKELFREISNIPNLSIKSFYNKISLLSDGHRGLDFSSATSAIEIALWDISGKLKNLPLNSLLTKSPKPNVPIYATCWSDLKKDTNDYLRQIEKFYGKKYGGIKIYPMLDSLSISIQFVEKVREIVGDELPLMLDLAVPEDLDQTKSFLKEVSSFNPYWIEEPVDGENISLLTEIKNTFNMKVVTGEKQSGLVHFRELISRNAADIFNPDISGMGGLIDIIEISNEASNNGIFISPHCWNSMSVSASAMLHVCSSIPNSEKAEIFPDYINFSKKFCELPFDIIDNKAHINKSAGLGIVIHEDILSELSIYSLDEKSNDEGHHHHHH | not failed
MSLNRFTKTSQGRSWNTGNGSPDAICFAVDKPGIVVVGFAVYGGGGIHEYELEVLVDDSEHAGDSTHSHRWTSLELVKGTYTTDDSPSDIAEIRLDKVVPLKENVKYAVRLRNYGSRTANGDGGMTTVQCPDGVTFTFSTCSLSSNGTNQTRGQIPQILYYRSEEGHHHHHH | not failed
MSLPISLTDFFPIQGGMATRMVIEGANFGTDLSQIKVFFNQKEASILNVKNSIIYLLVPKLPGNDCIVTVKVGNQEARFTRNFQYIENYSVTTIAGQPGTNLFVEGTLAAAQFGPVQHLAIDDENNLFITERNGSDGKGTCSVLNEESGTVTFLFKASDNLNVPTVNAQTQNVYIPLDGGYTFYELNPVNQWIAKSRLVLHPSKEQQEAGMDDFEINWKHSLAFSRYDNMIYTRSYGGDLIKVDPETRVGQKIGNFFPNTDSFIVAHPTQPEILYIAYAAKHVIYTYNIETGEHKLFAGAFGQSGWNDGIATDAEFNSPRQMSLDMEGNIYIADSGNHCIRMIDKNGIVTTPIGQPGEAGYADGSPDMALLNDPRGVAVNSEGDVYIADLGNRCIRKLTLQLEHHHHHH | not failed
